Data from patent US20190119318A1.
Several values for one entry are separate records, joined by “and”; a condition that tells them apart may be missing. Identical values can stand only once.

Legend:
[1] = biological target: human polyclonal IgG (Gammanorm) (human); assay: SPR; after 200 CIP cycles 0.5 M NaOH
[2] = biological target: human polyclonal IgG (Gammanorm) (human); assay: column DBC; base A62a; ligand 9.7 mg/ml
[3] = biological target: human polyclonal IgG (Gammanorm) (human); assay: column DBC; base A33; ligand 7.3 mg/ml
[4] = biological target: human polyclonal IgG (Gammanorm) (human); assay: column DBC; base A33; ligand 9.4 mg/ml
[5] = biological target: human polyclonal IgG (Gammanorm) (human); assay: column DBC; base A40; ligand 6.1 mg/ml
[6] = biological target: human polyclonal IgG (Gammanorm) (human); assay: column DBC; base A40; ligand 13.2 mg/ml
[7] = biological target: human polyclonal IgG (Gammanorm) (human); assay: SPR; vs reference Zvar4; 1 M NaOH
[8] = biological target: human polyclonal IgG (Gammanorm) (human); assay: column DBC; base A18; ligand 8.2 mg/ml
[9] = biological target: human polyclonal IgG (Gammanorm) (human); assay: SPR; after 100 CIP cycles 0.5 M NaOH
[10] = biological target: human polyclonal IgG (Gammanorm) (human); assay: column DBC; base A43; ligand 10.51 mg/ml
[11] = biological target: human polyclonal IgG (Gammanorm) (human); assay: column DBC; base A32; ligand 13.3 mg/ml
[12] = biological target: human polyclonal IgG (Gammanorm) (human); assay: column DBC; base A39; ligand 6.96 mg/ml
[13] = biological target: human polyclonal IgG (Gammanorm) (human); assay: column DBC; base C4; ligand […]
[14] = biological target: human polyclonal IgG (Gammanorm) (human); assay: column DBC; base A42; ligand 6.72 mg/ml
[15] = biological target: human polyclonal IgG (Gammanorm) (human); assay: column DBC; base A62a; ligand 6.6 mg/ml
[16] = biological target: human polyclonal IgG (Gammanorm) (human); assay: column DBC; base A28; ligand 15.8 mg/ml
[17] = biological target: human polyclonal IgG (Gammanorm) (human); assay: column DBC; ligand 16 mg/ml; before incubation in 1 M NaOH
[18] = biological target: human polyclonal IgG (Gammanorm) (human); assay: SPR; after 100 CIP cycles 1 M NaOH
[19] = biological target: human polyclonal IgG (Gammanorm) (human); assay: column DBC; base A42; ligand […]
[20] = biological target: human polyclonal IgG (Gammanorm) (human); assay: column DBC; base C3; ligand 9.0 mg/ml
[21] = biological target: human polyclonal IgG (Gammanorm) (human); assay: column DBC; base A41; ligand 5.0 mg/ml
[22] = biological target: human polyclonal IgG (Gammanorm) (human); assay: column DBC; base A38; ligand 7.5 mg/ml
[23] = biological target: human polyclonal IgG (Gammanorm) (human); assay: SPR; after 300 CIP cycles 0.5 M NaOH
[24] = biological target: human polyclonal IgG (Gammanorm) (human); assay: column DBC; base A27; ligand 7.5 mg/ml
[25] = biological target: human polyclonal IgG (Gammanorm) (human); assay: column DBC; base A38; ligand 7.45 mg/ml
[26] = biological target: human polyclonal IgG (Gammanorm) (human); assay: column DBC; base A65b; ligand 8.8 mg/ml
[27] = biological target: human polyclonal IgG (Gammanorm) (human); assay: column DBC; base A40; ligand 11.0 mg/ml
[28] = biological target: human polyclonal IgG (Gammanorm) (human); assay: column DBC; base A65b; ligand […]
[29] = biological target: human polyclonal IgG (Gammanorm) (human); assay: column DBC; base A43; ligand 6.99 mg/ml
[30] = biological target: human polyclonal IgG (Gammanorm) (human); assay: column DBC; base A65a; ligand 13.1 mg/ml
[31] = biological target: human polyclonal IgG (Gammanorm) (human); assay: column DBC; base C1; ligand 10.8 mg/ml
[32] = biological target: human polyclonal IgG (Gammanorm) (human); assay: column DBC; base A20; ligand 7.3 mg/ml
[33] = biological target: human polyclonal IgG (Gammanorm) (human); assay: column DBC; base I1; ligand 6.1 mg/ml
[34] = biological target: human polyclonal IgG (Gammanorm) (human); assay: column DBC; base A63a; ligand 6.6 mg/ml
[35] = biological target: human polyclonal IgG (Gammanorm) (human); assay: column DBC; base A62b; ligand […]; conditions: ligand content 5.2 mg/ml
[36] = biological target: human polyclonal IgG (Gammanorm) (human); assay: column DBC; base A29; ligand 11 mg/ml

Substance “Zvar(Q9A,N11E,Q40V,A42K,N43A,L44I)4 (designed binder)” has a remaining capacity 200 cycles [1] of 74%, a Qb10% 2.4 min [2] of 48 mg/mL and a Qb10% 6 min [2] of 60 mg/mL. The Qb10% 2.4 min [3] was 49 mg/mL, the Qb10% 6 min [3] was 56 mg/mL and the Qb10% 2.4 min [4] was 51 mg/mL. For the same substance, the Qb10% 6 min [4] was 58 mg/mL, the Qb10% 2.4 min [5] was 49 mg/mL and the Qb10% 6 min [5] was 59 mg/mL. It also gave a Qb10% 2.4 min [6] of 57 mg/mL, a Qb10% 6 min [6] of 71 mg/mL and a capacity relative to ref. 100 cycles [7] of 2.07. For the same substance, the Qb10% 2.4 min [8] was 52 mg/mL, the Qb10% 6 min [8] was 59 mg/mL and the remaining capacity 100 cycles [9] was 90%. The Qb10% 2.4 min [10] was 31.8 mg/mL, the Qb10% 6 min [10] was 58 mg/mL and the Qb10% 2.4 min [11] was 37 mg/mL. The Qb10% 6 min [11] was 66 mg/mL, the Qb10% 2.4 min [12] was 41.9 mg/mL and the Qb10% 6 min [12] was 54.7 mg/mL. It also gave a Qb10% 2.4 min [13] of 59 mg/mL, a Qb10% 6 min [13] of 67 mg/mL and a Qb10% 2.4 min [14] of 33.6 mg/mL. For the same substance, the Qb10% 6 min [14] was 50 mg/mL, the Qb10% 2.4 min [15] was 41 mg/mL and the Qb10% 6 min [15] was 46 mg/mL. The Qb10% 2.4 min [16] was 37 mg/mL, the Qb10% 6 min [16] was 67 mg/mL and the Qb10%, 6 min, before incubation [17] was 73 mg/mL. It also gave a remaining capacity 100 cycles [18] of 56%, a Qb10% 2.4 min [19] of 32.2 mg/mL and a Qb10% 6 min [19] of 57.8 mg/mL. It also gave a Qb10% 2.4 min [20] of 49 mg/mL, a Qb10% 6 min [20] of 62 mg/mL and a Qb10% 2.4 min [21] of 35.6 mg/mL. The Qb10% 6 min [21] was 46 mg/mL, the Qb10% 2.4 min [22] was 44 mg/mL and the Qb10% 6 min [22] was 58 mg/mL. The remaining capacity 300 cycles [23] was 57%, the Qb10% 2.4 min [24] was 29.2 mg/mL and the Qb10% 6 min [24] was 48.7 mg/mL. For the same substance, the Qb10% 2.4 min [25] was 44.4 mg/mL, the Qb10% 6 min [25] was 58.2 mg/mL and the Qb10% 2.4 min [26] was 49 mg/mL. For the same substance, the Qb10% 6 min [26] was 56 mg/mL, the Qb10% 2.4 min [27] was 55 mg/mL and the Qb10% 6 min [27] was 74 mg/mL. The Qb10% 2.4 min [28] was 42 mg/mL, the Qb10% 6 min [28] was 46 mg/mL and the Qb10% 2.4 min [29] was 33.4 mg/mL. It also gave a Qb10% 6 min [29] of 49.8 mg/mL, a Qb10% 2.4 min [30] of 56 mg/mL and a Qb10% 6 min [30] of 64 mg/mL. For the same substance, the Qb10% 2.4 min [31] was 43 mg/mL, the Qb10% 6 min [31] was 60 mg/mL and the Qb10% 2.4 min [32] was 45.1 mg/mL and 45 mg/mL. The Qb10% 6 min [32] was 57.2 mg/mL and 57 mg/mL, the Qb10% 2.4 min [33] was 45 mg/mL and the Qb10% 6 min [33] was 51 mg/mL. For the same substance, the Qb10% 2.4 min [34] was 40 mg/mL, the Qb10% 6 min [34] was 44 mg/mL and the Qb10% 2.4 min [35] was 40 mg/mL. The Qb10% 2.4 min [36] was 34.9 mg/mL and the Qb10% 6 min [36] was 64.7 mg/mL.
